One assay concerns the target T1, CD122-Fc fusion protein (UniProt P14784 27-240, limits assumed).
T1 construct: also called IL-2Rβ; not shown: Fc part
T1 sequence (looked up): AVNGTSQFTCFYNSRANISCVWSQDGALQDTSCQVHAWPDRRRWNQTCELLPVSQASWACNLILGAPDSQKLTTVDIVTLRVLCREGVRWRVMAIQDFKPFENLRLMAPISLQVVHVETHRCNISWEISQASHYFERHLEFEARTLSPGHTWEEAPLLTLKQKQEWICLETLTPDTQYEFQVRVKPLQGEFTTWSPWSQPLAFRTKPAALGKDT
Briefly: BLI (Octet RED96); CD122-Fc on AHC biosensor, IL-2 mutein at 400 nM. Further details: unit not given here. An excerpt: (§1) Briefly, an CD25- or CD122-Fc fusion protein was loaded onto an anti-human IgG Fc capture (AHC) biosensor.
In general terms: In BLI a coated tip is dipped into the sample, and binding shifts an interference pattern.

Another assay addresses T2, CD25-Fc fusion protein (UniProt P01589 22-213, limits assumed).
T2 construct: also called IL-2Rα; not shown: Fc part
T2 sequence (looked up): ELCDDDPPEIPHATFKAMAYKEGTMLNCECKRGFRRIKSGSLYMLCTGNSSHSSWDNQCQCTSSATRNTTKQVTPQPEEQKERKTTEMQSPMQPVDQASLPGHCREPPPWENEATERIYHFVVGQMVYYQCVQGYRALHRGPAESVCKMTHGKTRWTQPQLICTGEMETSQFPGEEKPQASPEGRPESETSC
The assay can be described thus: BLI (Octet RED96); CD25-Fc on AHC biosensor, IL-2 mutein at 400 nM. Further details: unit not given here.
From the text: as §1

Numbering of substitutions follows the chain as printed. Names and notes keep the numbering of the source.

B1: IL-2-IL-15 Chimera 1 (C125S) (ligand)
chain: APTSSSTKKTQLQLEHLLLDLQMILNGIQSMEIDATTFKFYMPKKATELKHLQCLEEELKPLEEVLNLAQSKNFHLRPRDLISNINVIVLELKGSETTFMCEYADETATIVEFLNRWITFSQSIISTLT
notes: Column headed 'Fusion Protein'; no fusion partner is stated for the assay
On to B1, for which the “Binding Response” value is over 0.5 in the assay with CD122-Fc fusion protein and under 0.05 in the assay with CD25-Fc fusion protein.

B2: IL-2-IL-15 Chimera 17 (H16V, C125S) (ligand)
chain: B1 chain with H16V
notes: as for B1
As to B2, the “Binding Response” value was under 0.1 in the assay with CD122-Fc fusion protein and under 0.05 in the assay with CD25-Fc fusion protein.

B3: IL-2-IL-15 Chimera 33 (I92D, C125S) (ligand)
chain: B1 chain with I88D
notes: No fusion partner is stated for the assay; also called IL-2-IL-15 Chimera 29 (I92D, C125S)
As for B3, the “Binding Response” value with CD122-Fc fusion protein was under 0.1; with CD25-Fc fusion protein, under 0.05.

B4: IL-2-IL-15 Chimera 19 (D20T, C125S) (ligand)
chain: B1 chain with D20T
notes: as for B1
On to B4, for which the entries for the “Binding Response” value with CD122-Fc fusion protein and with CD25-Fc fusion protein were under 0.1 and under 0.05, respectively.

B5: IL-2-IL-15 Chimera 21 (D20A, C125S) (ligand)
chain: B1 chain with D20A
notes: as for B1
Turning to B5, the “Binding Response” value with CD122-Fc fusion protein is under 0.1; in the assay with CD25-Fc fusion protein it was under 0.05.

B6: IL-2-IL-15 Chimera 15 (H16I, C125S) (ligand)
chain: B1 chain with H16I
notes: as for B1
For the molecule B6, the “Binding Response” value in the assay with CD122-Fc fusion protein is under 0.1; with CD25-Fc fusion protein, under 0.05.

B7: IL-2-IL-15 Chimera 23 (D20E, C125S) (ligand)
chain: B1 chain with D20E
notes: as for B1
On to B7, for which the “Binding Response” value was under 0.1 with CD122-Fc fusion protein and under 0.05 with CD25-Fc fusion protein.

B8: IL-2-IL-15 Chimera 35 (I92E, C125S) (ligand)
chain: B1 chain with I88E
notes: No fusion partner is stated for the assay; also called IL-2-IL-15 Chimera 29 (I92E, C125S)
Turning to B8, the results for the “Binding Response” value with CD122-Fc fusion protein and with CD25-Fc fusion protein were under 0.1 and under 0.05, respectively.

B9: IL-2-IL-15 Chimera 11 (H16E, C125S) (ligand)
chain: B1 chain with H16E
notes: as for B1
In the case of B9, the “Binding Response” value in the assay with CD122-Fc fusion protein is under 0.2; with CD25-Fc fusion protein, under 0.05.

B10: IL-2-IL-15 Chimera 31 (I92G, C125S) (ligand)
chain: B1 chain with I88G
notes: No fusion partner is stated for the assay; also called IL-2-IL-15 Chimera 29 (I92G, C125S)
In the case of B10, the “Binding Response” value was under 0.2 with CD122-Fc fusion protein and under 0.05 with CD25-Fc fusion protein.

B11: IL-2-IL-15 Chimera 25 (D20K, C125S) (ligand)
chain: B1 chain with D20K
notes: as for B1
As for B11, the figures for the “Binding Response” value in the assay with CD122-Fc fusion protein and in the assay with CD25-Fc fusion protein were under 0.1 and under 0.05, respectively.

B12: IL-2-IL-15 Chimera 29 (I92A, C125S) (ligand)
chain: B1 chain with I88A
notes: as for B1
As to B12, the “Binding Response” value is under 0.1 in the assay with CD122-Fc fusion protein and under 0.05 in the assay with CD25-Fc fusion protein.

B13: IL-2-IL-15 Chimera 27 (N88A, C125S) (ligand)
chain: B1 chain with N84A
notes: as for B1
On to B13, for which the “Binding Response” value was under 0.1 with CD122-Fc fusion protein and under 0.05 in the assay with CD25-Fc fusion protein.

B14: IL-2-IL-15 Chimera 5 (E15K, C125S) (ligand)
chain: B1 chain with E15K
notes: as for B1
Consider B14, for which the results for the “Binding Response” value with CD122-Fc fusion protein and with CD25-Fc fusion protein were over 0.5 and under 0.05, respectively.

B15: hIL-2 Mutein (K32E, F42C, V69C, C125S) (ligand)
chain: APTSSSTKKTQLQLEHLLLDLQMILNGINNYENPKLTRMLTCKFYMPKKATELKHLQCLEEELKPLEECLNLAQSKNFHLRPRDLISNINVIVLELKGSETTFMCEYADETATIVEFLNRWITFSQSIISTLT
notes: The description says F42C and V69C form a disulfide bond; Column headed 'Fusion Protein'; no fusion partner is stated for the assay
For the molecule B15, the “Binding Response” value in the assay with CD122-Fc fusion protein is over 0.5; in the assay with CD25-Fc fusion protein, under 0.05.

B16: hIL-2 Mutein (K32E, R38E, F42K, C125S) (ligand)
chain: B15 chain with R38E, C42K, C69V
notes: as for B1
With B16, the “Binding Response” value with CD122-Fc fusion protein was over 0.5; in the assay with CD25-Fc fusion protein, under 0.05.

B17: hIL-2 Mutein (R38N, L40T, C125S) (ligand)
chain: B15 chain with E32K, R38N, L40T, C42F, C69V
notes: as for B1
As for B17, the “Binding Response” value with CD122-Fc fusion protein was over 0.5; with CD25-Fc fusion protein, under 0.05.

These data come from patent US20240174753A1 (ANWITA BIOSCIENCES, published 2024).
